In the nanobody polyreactivity screen of Harvey et al. (2022):

Assay: yeast display, Sf9 membrane polyspecificity reagent, FACS + sequencing; frameworks hold sequencing errors
Procedure, shortened: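 Using colony PCR, genes from sorted yeast display clones were amplified, then sequenced on MiSeq at 2 × 250 and filtered by CDR length. The clones had been stained with 10% biotinylated, detergent-solubilized Sf9 membrane reagent for 1 hour at 4 °C and sorted by FACS into low and high (top ~1%) gates on anti-HA and streptavidin fluorescence. Polyreactivity labels come from the gate of origin.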

Sequence	polyreactivity (PSR sort gate)
QVQLVESGGGLVQAGGSLRLSCAASGSIFGYNAMGWYRQAPGKERELVAAINYNGGRTYYADSVKGRFTISRDNAKNTVYLQMNSLKPEDTAVYYCATQGRSLYYRYDYWGQGTQVTVSS	high polyreactivity
QVQLVESGGGLVQAGGSLRLSCAASGSIFGYNAMGWYRQAPGKERELVAAIRRSGSSTYYADSVKGRFTISRDNAKNTVYLQMNSLKPEDTAVYYCNRVPRPVADQEYDYWGQGTQVTVSS	low polyreactivity
QVQLVESGGGLVQAGGSLRLSCAASGSIFGYNAMGWYRQAPGKERELVAAISLSGSSTYYADSVKGRFTISRDNAKNTVYLQMNSLKPEDTAVYYCAALYQWRRVFYTSYGYWGQGTQVTGSS	high polyreactivity
QVQLVESGGGLVQAGGSLRLSCAASGSIFGYNAMGWYRQAPGKERELVAAISLTTGSTYYADSVKGRFTISRDNAKNTVYLQMNSLKPEDTAVYYCAAVDADYYYWGQGTQVTVSS	high polyreactivity
QVQLVESGGGLVQAGGSLRLSCAASGSIFGYNDMGWYRQAPGKERELVAAITTSGDSTYYADSVKGRFTISRDNAKNTVYLQMTSLKPEDTAVYYCNGDGEVVDWYHPYYVEYDYWGQGTQVTVSS	low polyreactivity
QVQLVESGGGLVQAGGSLRLSCAASGSIFGYNTMGWYRQAPGKERDLVADISVSGDDTYYADSVKGRFTISRDNAKITVYLQMNSLKPEDTAVYYCNADEYYGYYHTYDYWGQGTQVTVSS	low polyreactivity
QVQLVESGGGLVQAGGSLRLSCAASGSIFGYNVMGWYRQAPGKERELVAAINYSGGRTYYADSVKGRFTISRDNAKNTVYLEMNSLKPEDTAVYYCAAVPLSRYTVFNYDYWGQGTQVTVSS	high polyreactivity
QVQLVESGGGLVQAGGSLRLSCAASGSIFGYNVMGWYRQAPGKEWELVAAITYSGGSTYYADSVKGRFTISRDNAKNTVYLQMNSLKPEDTAVFYCNAVTLRRIYSNPEYDSWGQGTQVSVSS	high polyreactivity
QVQLVESGGGLVQAGGSLRLSCAASGSIFGYYAMGWSRQAPGKEREVVAAISASGGSTYYADSVKGRFTISRDTAKNTVYLQMNSLKPEDTAVYYCAAVRSVTYIWARYPYGLEYWGQGTQVTVSS	high polyreactivity
QVQLVESGGGLVQAGGSLRLSCAASGSIFGYYAMGWYRPAPGKERELVAAISGSAGTTYYADSVKGRFTISRDNAKNTVYLQMNSLKPEDTAVYYCAKYYPYIQADYGYDYWGQGTQVTVSS	low polyreactivity
QVQLVESGGGLVQAGGSLRLSCAASGSIFGYYAMGWYRQAPGKEREFVATISTSGVSTYYADSVKGRFTISRDNAKNTVYLQMNSLKPEDTAVYYCNAYLWYTGWDYDGEDYWGQGTQVTVSS	low polyreactivity
QVQLVESGGGLVQAGGSLRLSCAASGSIFGYYAMGWYRQAPGKERELVAAIDSGGSTYYADSVKGRFTISRDNAKNTVYLQMNSLKPEDTAVYYCATDYSGLRYDYWGQGTQVTVSS	low polyreactivity
QVQLVESGGGLVQAGGSLRLSCAASGSIFGYYAMGWYRQAPGKERELVAAIRRSGGSTYYADSVKGRFTISRDNAKNTVYLQMNSLKPEDTAVYYCAARFKSSDWHYYYWGQGTQVTVSS	high polyreactivity
QVQLVESGGGLVQAGGSLRLSCAASGSIFGYYAMGWYRQAPGKERELVAAIRTTGGRTYYADSVKGRFTISRDNAKNTVYLQMNSLKPEDTAVYYCNALQAGVSYDYWGQGTQVTVSS	high polyreactivity
QVQLVESGGGLVQAGGSLRLSCAASGSIFGYYAMGWYRQAPGKERELVAAISGSGGSTYYADSVKGRFTISRDNAKNTVYLQMNSLKPEDTAVYYCDRVRGGYDKMYYWGQGTQVTVSS	high polyreactivity
QVQLVESGGGLVQAGGSLRLSCAASGSIFGYYAMGWYRQAPGKERELVAAISSSGASTYYADSVKGRFTISRDNAKNTVYLQMNSLKPEDTAVYYCNADRRYPTRGGYWGQGTQVTVSS	high polyreactivity

Sequence	polyreactivity (PSR sort gate)
QVQLVESGGGLVQAGGSLRLSCAASGSIFGYYAMGWYRQAPGKERELVAAISYSGGSTYYADSVKGRFTISRDNAKNTVYVQMNSLKPEDTAVYYCAARYASTPYARFGYWGQGSQVTVSS	high polyreactivity
QVQLVESGGGLVQAGGSLRLSCAASGSIFGYYAMGWYRQAPGKERELVAAITTRGGRTYYADSVKGRFTISRDNAKNTVYLQMNSLNPEDTAVYYCAARTGRGRYDYWGQGTQVTVSS	high polyreactivity
QVQLVESGGGLVQAGGSLRLSCAASGSIFGYYAMGWYRQAPGKERELVAAITWRGGTYYADSVKGRFTISRDNAKNTVYLQMNSLKPEDTAVYYCAAPRLATYQWYDYWGQGTQVTVSS	high polyreactivity
QVQLVESGGGLVQAGGSLRLSCAASGSIFGYYAMGWYRQAPGKERELVAAITYSGGRTYYADSVKGRFTISRDNAKNTVYLQMNSLKPEDTAVYYCARAPPGDRFVRYDYWGQGTQVTVSS	high polyreactivity
QVQLVESGGGLVQAGGSLRLSCAASGSIFGYYAMGWYRQAPGKERELVASITRSGDTTYYADSVKGRFTISRDNAKNTVYLQMNSLKPEDTAVYYCAARRWRWYYDGFVRMDYWGQGTQVTVSS	high polyreactivity
QVQLVESGGGLVQAGGSLRLSCAASGSIFGYYAMGWYRQAPGKERELVASITSDTSTNYADSVKGRFTISRDNAQNTVYLQMNSLKPEDTAVYYCNARIAKWKRGYSSTFDYWGQGTQVTVSS	low polyreactivity
QVQLVESGGGLVQAGGSLRLSCAASGSIFGYYAMGWYSQAPGKERELVAAFTASGGSTYYADSVKGRFTISRDNAKNTVYFQMNSLKPEDTAVYYCAAGTHTDYGRYYYWGQGTQVTVSS	low polyreactivity
QVQLVESGGGLVQAGGSLRLSCAASGSIFGYYAMGWYTQAPGKERELVASITRGGSTYYADSVKGRFTISRDNAKNTVYLQMNSLKPEDTAVYYCAAAQWWFRVRGARYYYWGQGTQVTVSS	high polyreactivity
QVQLVESGGGLVQAGGSLRLSCAASGSIFGYYTIGWYRQAPGKEREFVAAITQSGGSTYYADSVKGRFTISRDNAKNTVYLQMNSLKPEDTAVYYCAKQGYLKWGGTGDYWGQGTQVTVSS	high polyreactivity
QVQLVESGGGLVQAGGSLRLSCAASGSIFGYYTMGWYIQAPGKERELVAAITSGGSTNYADSVKGRFTISRDNAKNTVYLQMNSLKPEDTAVYYCAKVSYYPWRYDYWGQGTQVTVSS	low polyreactivity
QVQLVESGGGLVQAGGSLRLSCAASGSIFGYYTMGWYIQAPGKERELVATITSGGSTYYADSVKGRFTISRDNAKNSVSLQMNSLKPEDTAVYYCNADRYWRVYWGQGTQVTVSS	high polyreactivity
QVQLVESGGGLVQAGGSLRLSCAASGSIFGYYTMGWYRQAPGKERELVAAISRRGGSTYYADSVKGRFTISRDNAKKTVYLQMNSLKPEDTAVYYCAADVARSRHFEMDYWGQGTQVTVSS	high polyreactivity
QVQLVESGGGLVQAGGSLRLSCAASGSIFGYYTMGWYRQAPGKERELVAAITRSGATTFYADSVKGRFTISRDKAKNTVYLQMNSLKPEDTAVYYCAAQARGYTRGYWGQGTQVTVSS	high polyreactivity
QVQLVESGGGLVQAGGSLRLSCAASGSIFGYYTMGWYRQAPGKERELVAAITSGGSTNYADSVKGRFTISRDNAKNTVYLQMNSLKPEDTSVYYCAKVSYYPWRYDYWGQGTQVTVSS	low polyreactivity
QVQLVESGGGLVQAGGSLRLSCAASGSIFGYYTMGWYRQAPGKERELVAAITSGGSTNYADSVKGRFTISRDNAKNTVYLQMNSLKPEETAVYYCAKVSYYTWRYDYWGQGTQVTVSS	low polyreactivity
QVQLVESGGGLVQAGGSLRLSCAASGSIFGYYTMGWYRQAPGKERELVARITRGGSTYYADSVKGRFTISRDNAKNTVYLQMNSLKPEDTAVYYCAARRVNAGWTYGLRGNYWGQGTQVTVSS	low polyreactivity
